# In patent US20070207967:
# Biological target: T1, PPC peptide, soluble recombinant 18-mer ADGACGYGRFSPPCGAAG
# T1 chain: ADGACGYGRFSPPCGAAG
protein,measurement,value
aminophenylmercuric acetate (APMA)-activated MMP-2 (protein) YNFFPRKPKWDKNQITYRIIGYTPDLDPETVDDAFARAFQVWSDVTPLRFSRIHDGEADIMINFGRWEHGDGYPFDGKDGLLAHAFAPGTGVGGDSHFDDDELWTLGEGQVVRVKYGNADGEYCKFPFLFNGKEYNSCTDTGRSDGFLWCSTTYNFEKDGKYGFCPHEALFTMGGNAEGQPCKFPFRFQGTSYDSCTTEGRTDGYRWCGTTEDYDRDKKYGFCPETAMSTVGGNSEGAPCVFPFTFLGNKYESCTSAGRSDGKMWCATTANYDDDRKWGFCPDQGYSLFLVAAHEFGHAMGLEHSQDPGALMAPIYTYTKNFRLSQDDIKGIQELYGASPDIDLGTGPTPTLGPVTPEICKQDIVFDGIAQIRGEIFFFKDRFIWRTVTPRDKPMGPLLVATFWPELPEKIDAVYEAPQEEKAVFFAGNEYWIYSASTLERGYPKPLTSLGLPPDVQRVDAAFNWSKNKKTYIFAGDKFWRYNEVKKKMDPGFPKLIADAWNAIPDNLDAVVDLQGGGHSYFFKGAYYLKLENQSLKSVKFGSIKSDWLGC,"gelatin degradation assay (enzymatic activity, biotinylated gelatin substrate)",PPC inhibited both MMP-9 and MMP-2 activity
